This is an account of results in patent US20050074865A1.

The experiment deals with recombinant human TNFα (RDI) (human) (UniProt P01375). The experiment is described as follows: cell-based or functional assay.
Sequence of recombinant human TNFα (RDI) (human) (P01375 77-233 limits assumed): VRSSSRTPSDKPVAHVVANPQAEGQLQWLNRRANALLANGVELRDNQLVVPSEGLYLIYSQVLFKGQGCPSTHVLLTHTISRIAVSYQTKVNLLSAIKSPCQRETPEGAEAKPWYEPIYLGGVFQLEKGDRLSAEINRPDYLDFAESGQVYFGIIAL

Sequence of TRYPSIN (commercial protease of the screen) (enzyme) (P00760 24-246): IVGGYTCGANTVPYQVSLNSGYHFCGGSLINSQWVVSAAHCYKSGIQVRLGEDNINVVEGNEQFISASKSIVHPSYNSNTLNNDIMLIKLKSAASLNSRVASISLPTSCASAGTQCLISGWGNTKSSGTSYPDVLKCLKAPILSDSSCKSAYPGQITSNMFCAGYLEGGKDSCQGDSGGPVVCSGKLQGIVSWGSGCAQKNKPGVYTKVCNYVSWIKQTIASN
Sequence of MMP12 (enzyme) (P39900 106-470): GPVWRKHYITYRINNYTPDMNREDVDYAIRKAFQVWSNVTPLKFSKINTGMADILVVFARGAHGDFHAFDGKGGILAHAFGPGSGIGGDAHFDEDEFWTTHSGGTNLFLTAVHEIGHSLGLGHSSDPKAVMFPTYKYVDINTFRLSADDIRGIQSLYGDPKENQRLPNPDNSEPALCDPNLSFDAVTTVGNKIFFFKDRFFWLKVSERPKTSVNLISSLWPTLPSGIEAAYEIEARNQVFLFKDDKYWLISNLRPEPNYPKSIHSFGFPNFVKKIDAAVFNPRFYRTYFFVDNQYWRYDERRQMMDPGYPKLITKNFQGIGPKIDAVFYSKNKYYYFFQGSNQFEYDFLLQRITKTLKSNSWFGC

With Tryptase (enzyme), the log reduction in TNFα activity at the 50% survival level, L929 cytotoxicity bioassay after overnight digestion is 0.62 log.

ELASTASE (enzyme): the log reduction in TNFα activity at the 50% survival level, L929 cytotoxicity bioassay after overnight digestion was 1.45 log.

Consider MMP12 (enzyme), for which the log reduction in TNFα activity at the 50% survival level, L929 cytotoxicity bioassay after overnight digestion came to 0.65 log.

Turning to CHYMOTRYPSIN (enzyme), the log reduction in TNFα activity at the 50% survival level, L929 cytotoxicity bioassay after overnight digestion is 2.74 log.

As to MT1-MMP (enzyme), the log reduction in TNFα activity at the 50% survival level, L929 cytotoxicity bioassay after overnight digestion came to 0.86 log.

Consider “TRYPSIN (commercial protease of the screen) (enzyme)”, for which the log reduction in TNFα activity at the 50% survival level, L929 cytotoxicity bioassay after overnight digestion was 2.3 log.
